From US20150086562A1 (BIOATLA, published 2015) come the findings set out here.

The target of this test is T1, recombinant CD22 extracellular domain.
T1 construct: Kept apart from m18, which is cell-surface CD22; also called CD22 (analyte in the BIAcore runs); CD22 ECD
Briefly: The sheet does not state the method. The column 'KD (nM)' stands beside the confocal data, and the target form is taken from FIGURE 18. FIGURE 18 prints 0.25 for this clone. As to the method:
BIAcore 3000, GE Healthcare was used to determine binding curves and kinetic parameters. An anti-human Fc (1.8 mg/ml) was diluted to a concentration of 50 ug/ml in NaOAc buffer (10 mM, pH 4.8) and coupled to the carboxymethylated dextran matrix of a CM-5 sensor chip using the manufacturer's amine-coupling chemistry as described in the BIAcore systems manual. Using the surface preparation wizard aiming for 10000RU, the carboxyl groups on the sensor surfaces were first activated with NHS/EDC followed by the addition of the anti-human Fc. The remaining activated groups were blocked by the injection of 1M ethanolamine. Each of the flow cells was coupled individually. Employing these conditions, the four flow cell surfaces containing 7554-9571 RU of anti-human Fc were prepared. In preliminary experiments, it was determine that three injections (15 ul at 30 ul/min) 100 mM H₃PO₄/0.05% CHAPS would efficiently remove the bound immunoglobulin and preserve the binding capacity of the immobilized anti-human Fc.
Experiments were performed on the BIAcore 3000 at 25° C. and a flow rate of 30 ul/min. […] Using the 1:1 model in BIAevaluation 4.1, both a local fit and global fit was done for both dissociation (kd, [s−1] and association (ka, [M⁻¹s⁻¹]) and the dissociation constant (KD, [M]) calculated (kd/ka).

B1: VM1011 (antibody, V domains shown)
VH: QVQLQESGPGLVKPSQTLSLTCTVSGYVFTSYWLHWIRQPPGKGLEWIGYINPRNDYTEYNRIFKGRVTITADKSTSTAYMELSSLRSEDTAVYYCARRGITTFYWGQG
VL: EIVLTQSPATLSLSPGERATLSCKSSQSVLYSAVEKNYLAWYQQKPGQAPRLLIYWASTRERGIPDRFSGSGSGTDFTLTISRLEPEDFAVYYCKQYLSSWTFGQG
notes: Humanized antibody with human constant region; also called anti-CD22 Mab clone VM1011
As for B1, the equilibrium dissociation constant (Kd) came out at 0.26 nM.
